Patent US9873733B2, “Anti-staphylococcal antibodies” (priority 2012, dated 2018)

Columns and labels:
[1] = target: cyclic peptide representing loop 4 of MprF (Staphylococcus aureus, UniProt Q2G2M2); conditions: IgG in PBS; biotinylated cyclic peptide 5 μg/ml
Experimental: The IgGs were tested for binding to the antigen, which was used in their selection. Also binding to other MprF-peptides was tested to check for selectivity.
For ELISAs with cyclic antigen, the biotinylated cyclic peptides (final conc. 5 μg/ml) were incubated with IgGs in PBS. Then the mix was transferred to a pre-blocked Neutravidin plate (Thermo Scientific), incubated and then the plate was washed with PBS containing 0.5% of TWEEN20. MprF-specific IgGs were detected using goat-anti-human IgG (Sigma).
In both cases washing was performed using PBST ([…] with 0.05% TWEEN20. Detection was performed using alkaline phosphatase coupled Goat anti-human IgG (Sigma Cat. # A-8542 and Attophos™ substrate Roche, Cat. #11681982001). Fluorescence was measured at an excitation of 440±25 nm and an emission of 550±35 nm. Full signal intensity is typically reached after 5-15 min at room temperature.

[2] = tested on: MprF on S. aureus (Protein A deletion mutant, delta spa); test: Whole cell ELISA on S. aureus; format: binding, Staphylococcus aureus; conditions: E. coli as negative control
Experimental: (§1) The specificity of the purified antibodies was tested for binding to whole cell Staphylococcus aureus in an ELISA assay. Escherichia coli bacteria were used as a negative control.
(§2) For ELISA on S. aureus the Protein A deletion mutant (delta spa) or the mutant with an additional deletion in MprF (delta spa delta mprf) were grown to mid log phase, than washed in PBS and resuspended in saline to a final OD600 of 0.6. This bacterial culture was coated on Maxisorp plates (Nunc). Plates were blocked with 2% BSA/PBS and washed with TSB containing 0.5% TWEEN20.

[3] = tested on: S. aureus mutants lacking MprF expression (delta spa delta mprF); test: Whole cell ELISA on S. aureus mutant lacking MprF; format: binding, Staphylococcus aureus; conditions: compared with delta spa
Experimental: as §1, §2

S. aureus SA113 Δspa [4] = test: Killing of S. aureus by nisin with MprF antibodies; format: cell-based, Staphylococcus aureus; conditions: antibody 100 μg/ml, 22.5 μg/ml nisin, 2 hours; anti-lysozyme antibody as control
Experimental: In this experiment killing of Staphylococcus aureus was tested. Nisin was used as an exemplary cationic antimicrobial compound. Nisin was tested in combination with selected antibodies of the present invention. An anti-lysozyme antibody was used as a negative control.
(§3) Overnight cultures of S. aureus SA113 Δspa were diluted in fresh MHB medium and adjusted to OD600 0.25 (˜1.5×10^7 cells). Antibodies were adjusted to a concentration of 1 mg/ml and 10 μl were applied per well of a 96 well plate and diluted in 90 μl of the adjusted cell suspension (final antibody concentration: 100 μg/ml). Cells were grown in the presence of anti-lysozyme antibody (control) or with the anti-MprF antibodies. Duplicates were employed for each assay. After 3 hours of incubation under shaking conditions at 37° C., optical density was determined, adjusted to OD600 0.025 in 500 μl ice cold PBS buffer. 80 μl of the adjusted cell suspension were diluted with 20 μl of antimicrobial substances to final concentrations of 22.5 μg/ml nisin. After incubation for 2 hours under shaking conditions at 37° C., the cell suspensions were diluted 1:2000 and 100 μl of each duplicate was plated in triplicates on TSB medium containing agar plates to obtain a representative value of bacterial survival. Cells treated without antimicrobial substance were set at 100% and survival values were calculated with cells treated with antimicrobial substances. At least three independent assays were employed.

S. aureus SA113 Δspa [5] = test: Killing of S. aureus by daptomycin with MprF antibodies; format: cell-based, Staphylococcus aureus; conditions: antibody 100 μg/ml, 12.5 μg/ml Daptomycin; anti-lysozyme antibody as control
Experimental: as §3
The previous experiment was repeated, but instead of nisin, daptomycin is used. […]

S. aureus SA113 Δspa [6] = test: Killing of S. aureus by LL-37 with MprF antibodies; format: cell-based, Staphylococcus aureus; conditions: antibody 100 μg/ml, 45.0 μg/ml LL-37; anti-lysozyme antibody as control
Experimental: as §3
The previous experiment was repeated, but instead of nisin LL-37 is used. […]

[7] = tested on: S. aureus SA113 Δspa (flippase reaction of MprF); test: Cytochrome C repulsion assay; format: cell-based, Staphylococcus aureus; conditions: pre-incubation 3 hours, compared to anti-lysozyme antibodies
Experimental: The repulsion of positively charged cytochrome C has been repeatedly employed to investigate charge dependent cell surface modifications in bacteria, including the flippase reaction of MprF, which leads to increased positively charged lipids in the outer leaflet of the membrane and to increased repulsion of cytochrome C (Ernst et al., PLoS Pathogens 2009). Briefly, cells were grown in the presence of M-C4.1 or anti-lysozyme for 3 hours, followed by incubation with cytochrome C for 15 minutes and measurement of optical density of the supernatant in order to determine repulsion of positively charged cytochrome C. The established cytochrome C repulsion assay was scaled down to accommodate for the reduced amount of bacteria employed in the killing-assays.

[8] = tested on: S. aureus SA113 Δspa (MprF-mediated flipping of lysyl-phosphatidylglycerol); test: Annexin V assay; format: cell-based, Staphylococcus aureus; conditions: flow cytometry; anti-lysozyme pre-treated cells set at 100%
Experimental: Annexin V binds preferentially to negatively charged phospholipids and is therefore a useful tool for measuring the relative content of MprF-mediated flipping of lysyl-phosphatidylglycerol, as translocation leads to reduced accessibility of negatively charged phospholipids in the outer leaflet of the membrane and therefore to reduced binding of annexin V. Cells (S. aureus SA113 Δspa) were grown in the presence of M-C4.1 or anti-lysozyme antibody and then treated with annexin V for 15 minutes before being analyzed by flow cytometry for surface-bound fluorophore (FL-4 channel). Data are expressed in relative fluorescence units and compared to cells pre-treated with anti-lysoyzme set at 100% fluorescence.

[9] = tested on: Staphylococcus aureus clinical isolate 703; test: Killing of clinical isolate 703 by daptomycin; format: cell-based; conditions: 11 μg/ml daptomycin; anti-lysozyme antibody as control
Experimental: as §3
In this experiment killing of Staphylococcus aureus clinical isolate 703 (described in Jones et al., AAC 2008) by daptomycin in the presence of an MprF specific antibody was analyzed. […]

B1: M-C4.1: human IgG1 against cyclic peptide, loop 4 of MprF; VH1A kappa 1; VL Seq. ID: 44, VH Seq. ID: 45 (antibody, V domains shown)
VH: QVQLVQSGAEVKKPGSSVKVSCKASGGTFNSYAISWVRQAPGQGLEWMGGIIPIFGMATYAQKFQGRVTITADESTSTAYMELSSLRSEDTAVYYCARSLFGRAYWGQGTLVTVSS
VL: DIQMTQSPSSLSASVGDRVTITCRASQSISSFLAWYQQKPGKAPKLLIYDASSLQSGVPSRFSGSGSGTDFTLTISSLQPEDFATYYCLQADSTSYTFGQGTKVEIKRT
modifications: MC41 VH; MC41 VL
notes: human IgG1 against cyclic peptide, loop 4 of MprF; VH1A kappa 1; ID: 45
Specific binding to cyclic loop 4 peptide (ELISA) [1]: specifically bind to cyclic loop 4 peptide in a dose-dependent manner
Binding to whole cell S. aureus (ELISA) [2]: detect MprF on S. aureus
Binding to S. aureus mutants lacking MprF expression (ELISA) [3]: significantly weaker binding
Sensitivity of S. aureus towards nisin (killing, bacterial survival) (S. aureus SA113 Δspa [4]): most pronounced effects
Sensitivity of S. aureus towards daptomycin (killing) (S. aureus SA113 Δspa [5]): increased the sensitivity of Staphylococcus aureus towards daptomycin
Sensitivity of S. aureus towards LL-37 (killing) (S. aureus SA113 Δspa [6]): increased the sensitivity of Staphylococcus aureus towards LL-37
Decreased repulsion of cytochrome C [7]: 40%
Increased binding of annexin V [8]: 70%
Susceptibility of S. aureus 703 to daptomycin (killing) with MprF antibody [9]: restored susceptibility of S. aureus 703 bacteria to daptomycin
